# Source: patent EP1562972B1 (Facet Biotech Corporation, dated 2010)
# B1: OST577-IgG2M3 wild-type antibody (antibody)
# chain 1: QVQLVESGGGVVQPGRSLRLSCAASGFTFSRYGMHWVRQAPGKGLEWVAVISYDGSNKWYADSVKGRFTISRDNSKNTLFLQMHSLRAADTGVYFCAKDQLYFGSQSPGHYWGQGTLVTVSSASTKGPSVFPLAPCSRSTSESTAALGCLVKDYFPEPVTVSWNSGALTSGVHTFPAVLQSSGLYSLSSVVTVPSSNFGTQTYTCNVDHKPSNTKVDKTVERKCCVECPPCPAPPAAAPSVFLFPPKPKDTLMISRTPEVTCVVVDVSHEDPEVQFNWYVDGVEVHNAKTKPREEQFNSTFRVVSVLTVVHQDWLNGKEYKCKVSNKGLPAPIEKTISKTKGQPREPQVYTLPPSREEMTKNQVSLTCLVKGFYPSDIAVEWESNGQPENNYKTTPPMLDSDGSFFLYSKLTVDKSRWQQGNVFSCSVMHEALHNHYTQKSLSLSPSK
# chain 2: SYVLTQPPSVSVAPGQTARITCGGDNIGSKSVNWFQQKPGQAPVLVVYDDNERPSGISERFSGSNSGNTATLTISRVEAGDEADYYCQVWDSSSDHVVFGGGTKLTVLGQPKAAPSVTLFPPSSEELQANKATLVCLISDFYPGAVTVAWKADSSPVKAGVETTTPSKQSNNKYAASSYLSLTPEQWKSHRSYSCQVTHEGSTVEKTVAPTECS
# B2: OST577-IgG1 wild-type antibody (antibody)
# chain 1: not shown
# chain 2: SYVLTQPPSVSVAPGQTARITCGGDNIGSKSVNWFQQKPGQAPVLVVYDDNERPSGISERFSGSNSGNTATLTISRVEAGDEADYYCQVWDSSSDHVVFGGGTKLTVLGQPKAAPSVTLFPPSSEELQANKATLVCLISDFYPGAVTVAWKADSSPVKAGVETTTPSKQSNNKYAASSYLSLTPEQWKSHRSYSCQVTHEGSTVEKTVAPTECS
# What was measured:
# [1] = target: T1, human neonatal Fc receptor (FcRn), recombinant GPI-linked, on NS0 cells (human, UniProt P55899 24-297; P61769 21-119); assay: competition flow cytometry, NS0 cells with human FcRn, vs biotinylated OST577-IgG2M3, FBB pH 6.0
# T1 construct: Expressed from vector pDL208 on the surface of NS0 cells; also called human FcRn; HuFcRn; not shown: human c-myc decapeptide flanked by linker peptides, then GPI linkage signal of human decay accelerating factor (vector p)
# [2] = target: T1, human neonatal Fc receptor (FcRn), …; assay: competition flow cytometry, NS0 cells with human FcRn, vs biotinylated HuEP5C7-IgG2M3, FBB pH 6.0
# [3] = target: T1, human neonatal Fc receptor (FcRn), …; assay: competition flow cytometry, NS0 cells with human FcRn, vs biotinylated HuEP5C7-IgG2M3, FSB pH 6.0
# [4] = target: T2, rhesus neonatal Fc receptor (FcRn), recombinant GPI-linked, on NS0 cells (rhesus, UniProt H9Z6D2 24-297; Q6V7J5 21-119, GPI-linked at the C-terminus); assay: competition flow cytometry, NS0 cells with rhesus FcRn, vs biotinylated OST577-IgG1, FBB pH 6.0
# T2 construct: Expressed from vector pDL410 on the surface of NS0 cells; also called rhesus FcRn; RhFcRn; not shown: human c-myc decapeptide flanked by linker peptides, then GPI linkage signal of human decay accelerating factor (vector p)
# [5] = target: T1, human neonatal Fc receptor (FcRn), …; assay: competition flow cytometry, NS0 cells with human FcRn, vs biotinylated OST577-IgG1, FBB pH 6.0
# [6] = target: T1, human neonatal Fc receptor (FcRn), …; assay: as above; remark: listed apart in the source
Binder,IC50 [1] [µg/mL],Relative Binding [1],IC50 [2] [µg/mL],Relative Binding [2],IC50 [3] [µg/mL],Relative Binding [3],IC50 [4] [µg/mL],Relative Binding [4],IC50 [5] [µg/mL],Relative Binding [5],IC50 [6] [µg/mL],Relative Binding [6]
B1,11.9,1 ratio (IC50 wild-type / IC50 mutant),9.4,1 ratio (IC50 wild-type / IC50 mutant),10.7,1 ratio (IC50 wild-type / IC50 mutant),–,–,–,–,–,–
B2,–,–,–,–,–,–,8.86,1 ratio (IC50 wild-type / IC50 mutant),10.3,1 ratio (IC50 wild-type / IC50 mutant),13.9,1 ratio (IC50 wild-type / IC50 mutant)
